Laboratory results published in US20210238294A1 (JIANGSU HENGRUI MEDICINE, published 2021).
Substitutions are numbered along the chain they refer to.

B1: Dupilumab (antibody, V domains shown)
VH: EVQLVESGGGLEQPGGSLRLSCAGSGFTFRDYAMTWVRQAPGKGLEWVSSISGSGGNTYYADSVKGRFTISRDNSKNTLYLQMNSLRAEDTAVYYCAKDRLSITIRPRYYGLDVWGQGTTVTVSS
VL: DIVMTQSPLSLPVTPGEPASISCRSSQSLLYSIGYNYLDWYLQKSGQSPQLLIYLGSNRASGVPDRFSGSGSGTDFTLKISRVEAEDVGFYYCMQALQTPYTFGQGTKLEIKR
B2: murine monoclonal antibody 25G7 (antibody, V domains shown)
VH: EVQLVESGGGLVKPGGSLKLSCAASGFTFSDYGMHWVRQAPEKGLEWVAFISSGSSIIYYADIVKGRSTISRDNAKNTLFLQMTSLRSEDTAMYYCTRGNKRGFFDYWGQGTILTVSS
VL: QIVLTQSPALMSASPGEKVTMTCNASSSVSYMYWYQRKPRSSPKPWIYLTSNLASGVPVRFSGSGSGTSYSLTISSMEAEDAATYYCQQWRSNPPMLTFGSGTKLEVK
B3: mouse monoclonal antibody 7B10 (antibody, V domains shown)
VH: QVQLQQPGTELLKPGASVSLSCKASGYTFTSYWMHWVKQRPGQGLEWIGLIHPNSDTTKFSENFKTRATLTIDKSSSTAYMKLSSLTSEDSAVYYCAKSKIITTIVARHWYFDVWGTGTTVTVSS
VL: DIVLTQSPPSLAVSLGQRATISCKASQSVDYGGDSYMNWYQQKLGQPPKVLIYAASNLESGIPARFSGSGSGTDFTLNIHPVEEEDVATYYCQHSNENPPTFGGGTKLEIK
B4: human-mouse chimeric antibody 25G7-C (antibody, V domains shown)
VH: B2 VH
VL: B2 VL
B5: human-mouse chimeric antibody 7B10-C (antibody, V domains shown)
VH: B3 VH
VL: B3 VL
B6: humanized antibody hu7B10 (with VH-b heavy chain and VL-b light chain) (antibody, human IgG1, kappa, V domains shown)
VH: EVQLVQSGAEVKKPGASVKVSCKASGYTFTSYWMHWVRQAPGQGLEWMGLIHPNSDTTKFSENFKTRVTMTIDTSISTAYMELSRLRSDDTAVYYCAKSKIITTIVARHWYFDVWGQGTTVTVSS
VL: DIVLTQTPLSLSVTPGQPASISCKASQSVDYGGDSYMNWYLQKPGQPPQLLIYAASNLESGVPDRFSGSGSGTDFTLKISRVEAEDVGVYYCQHSNENPPTFGGGTKVEIKR
B7: humanized antibody hu25G7 (with VH-c heavy chain and VL-a light chain) (antibody, human IgG4 S228P, kappa, V domains shown)
VH: B2 VH with K13Q, K19R, E42G, T78S, F80Y, T84N, S88A, M93V, I113L, L114V
VL: EIVLTQSPATLSLSPGERATLSCNASSSVSYMYWYQQKPGQAPRLLIYLTSNLASGIPARFSGSGSGTDFTLTISSLEPEDFAVYYCQQWRSNPPMLTFGGGTKVEIKR
B8: affinity-matured humanized antibody hu25G7-A (antibody, human IgG4 S228P, kappa, V domains shown)
VH: B2 VH with K13Q, K19R, E42G, F80Y, T84N, S88A, M93V, I113L, L114V
VL: B7 VL with N24R, S30P, S92A, N93Y
B9: affinity-matured humanized antibody hu25G7-B (antibody, human IgG4 S228P, kappa, V domains shown)
VH: B2 VH with K13Q, K19R, E42G, F80Y, T84N, S88A, M93V, I113L, L114V
VL: EIVLTQSPATLSLSPGERATLSCRASPGVPPLAWYQQKPGQAPRLLIYLASSRPSGIPARFSGSGSGTDFTLTISSLEPEDFAVYYCQQWRSNPPMLTFGGGTKVEIKR

These binders were tested against T1, human IL-4R on cells (HEK-Blue IL-4 cells, TF-1 cells) (human, UniProt P24394 26-825) (assay: cell-based or functional assay).
With B1 the “Inhibiting the proliferation of TF-1 cells by IL-4 (IC50)” value was 0.102 µg/mL and the “blocking of the binding of HEK293-Blue IL-4 cell (to IL-4) (IC50)” value (shortened to “blocking of the binding … (IC50)”) was 0.00507 µg/mL. B2 was tested, and the “Inhibiting the proliferation of TF-1 cells by IL-4 (IC50)” value was 0.0513 µg/mL and the “blocking of the binding … (IC50)” value was 0.000975 µg/mL. In the case of B3, the “Inhibiting the proliferation of TF-1 cells by IL-4 (IC50)” value is reported as 0.418 µg/mL and the “blocking of the binding … (IC50)” value is reported as 0.0798 µg/mL.

Biological target: T1, human IL-4R on cells (HEK-Blue IL-4 …)
Assay: cell-based or functional assay
Remark: another data set of the same source
For B1, the “Inhibiting the proliferation of TF-1 cells by IL-4 (IC50)” value was 0.207 µg/mL and the “blocking the binding of HEK293-Blue IL-4 cell (to IL-4) (IC50)” value (“blocking the binding … (to IL-4) (IC50)” below) was 0.00324 µg/mL. In the case of B4, the “Inhibiting the proliferation of TF-1 cells by IL-4 (IC50)” value is reported as 0.0203 µg/mL and the “blocking the binding … (to IL-4) (IC50)” value is reported as 0.00202 µg/mL. B5 was tested, and the “Inhibiting the proliferation of TF-1 cells by IL-4 (IC50)” value was 0.0464 µg/mL and the “blocking the binding … (to IL-4) (IC50)” value was 0.00903 µg/mL.

Biological target: T1, human IL-4R on cells (HEK-Blue IL-4 …)
Assay: cell-based or functional assay
Remark: another data set of the same source
For B6, the “Inhibiting the proliferation of TF-1 cell by IL-4 (IC50)” value was 0.112 µg/mL and the “blocking the binding … (to IL-4) (IC50)” value was 0.00687 µg/mL. B1 was tested, and the “Inhibiting the proliferation of TF-1 cell by IL-4 (IC50)” value was 0.491 µg/mL and the “blocking the binding … (to IL-4) (IC50)” value was 0.000667 µg/mL. With B7 the “Inhibiting the proliferation of TF-1 cell by IL-4 (IC50)” value was 0.0296 µg/mL and the “blocking the binding … (to IL-4) (IC50)” value was 0.000943 µg/mL.

Biological target: T1, human IL-4R on cells (HEK-Blue IL-4 …)
Assay: cell-based or functional assay
Remark: another data set of the same source
In the case of B1, the “Inhibiting the proliferation of TF-1 cell by IL-13 (IC50)” value is reported as 0.0181 µg/mL, the “Inhibiting the proliferation of TF-1 cells by IL-4 (IC50)” value is reported as 0.101 µg/mL and the “blocking the binding of HEK293-Blue cells (with IL-4) (IC50)” value (“blocking the binding … (with IL-4) (IC50)” for short) is reported as 0.0125 µg/mL. For the same binder, the “blocking the binding of HEK293-Blue cells (with IL-13) (IC50)” value (“blocking the binding … (with IL-13) (IC50)” below) was 0.0148 µg/mL. B8 was tested, and the “Inhibiting the proliferation of TF-1 cell by IL-13 (IC50)” value was 0.0132 µg/mL, the “Inhibiting the proliferation of TF-1 cells by IL-4 (IC50)” value was 0.0837 µg/mL and the “blocking the binding … (with IL-4) (IC50)” value was 0.00649 µg/mL. For the same binder, the “blocking the binding … (with IL-13) (IC50)” value was 0.01 µg/mL. In the case of B9, the “Inhibiting the proliferation of TF-1 cell by IL-13 (IC50)” value is reported as 0.0137 µg/mL, the “Inhibiting the proliferation of TF-1 cells by IL-4 (IC50)” value is reported as 0.051 µg/mL and the “blocking the binding … (with IL-4) (IC50)” value is reported as 0.0066 µg/mL. For the same binder, the “blocking the binding … (with IL-13) (IC50)” value was 0.00838 µg/mL.
